This is an account of results in patent US20220242939A1 (BIOARCTIC, published 2022).

Positions count from the first letter of the chain named. Non-standard residues stand in square brackets, D forms with d. No end group written: not given here. Ahx = NCCCCCC(=O)O

First the molecules themselves.
T1: G200 N-terminal neo-epitope peptide GQPLQE-Acp-C (SEQ ID NO:50) conjugated to BSA (human, not fully specified (residue 8); printed as GQPLQE-Acp-C; also: C-terminal Cys conjugated to BSA carrier)
T1 construct: also called G200-BSA peptide; G200-peptide
T1 peptide: GQPLQE[Ahx]C

B1: 23D5, recombinant IgG2c antibody (antibody, V domains shown)
VH: EVQLVESGGGLVKPGGSLKLSCSASGFTFSRYAMSWVRQSPEKRLEWVAEINSGGSYSFYSDTVTGRFTISRDNAKNTLFLEMSSLRSEDTAIYYCARQLSGTDYYGTDYWGQGTSVTVSS
VL: DVLMTQTPLSLPVSHGDQASISCRSSQSLLYSNGNTYLEWYLQKPGQSPKLLIYKVSNRFSGVPDRFSGSGSGTDFTLKISRVEAEDLGVYYCFQGSHVPYTFGGGTKLEIK
B2: 4E6, recombinant IgG2c antibody (antibody, V domains shown)
VH: EVQLVESGGDLVKPGGSLKLSCAASGFTFSSYAMSWVRQSPEKRLEWVAEISGSGSRDHYTDSVTGRFTVSRDNAKNTLYLEMSSLRSEDTAIYYCARQLTGTDYYGTDYWGQGTSVTVSS
VL: B1 VL with T7I, H15L, L29I, L30V, K44R, V99L
notes: also called recombinant anti-G200 antibody 4E6
B3: 28F2, recombinant IgG2c antibody (antibody, V domains shown)
VH: QIQLVQSGPDLKKPGETVKISCKASGYTFTNYAMHWMKQAPGKALKWMGWINTYTGEPTFADDFKGRFAFSLETSASTAYLQINSLKNEDMATYFCAREGYYDRSHYFDYWGQGTTLTVSS
VL: B1 VL with H15L, Q27L, L30V, Y31H, S32G, N33D, F94L, V99I, Y101F, G105S
B4: 17G4, recombinant IgG2c antibody (antibody, V domains shown)
VH: B1 VH with S101T
VL: B1 VL
B5: 7B10, recombinant IgG2c antibody (antibody, V domains shown)
VH: AVQLVESGGGLVKPGRSLKLSCAASGFTFSSYAMSWVRQFPDKRLDWVAEISSGGGSTNYLDTVTGRFTISRDNAKNTLYLEMNSLRSEDTAMYYCARQLVGTDYYGTDYWGQGTSVTVSS
VL: B1 VL with H15L, S28N, L29I, L30V
notes: also called 7610
B6: 7C7, recombinant IgG2c antibody (antibody, V domains shown)
VH: EVQLVESGGGLVKPGGSLRLSCAASGFTFSSFAMSWVRQSPERRLEWVAEISRGGGYAFYSDTVTGRFTISRDNARNTLFLEMGSLRSEDTAMYYCSRQLTGTDYYAMDYWGQGTSVTVSS
VL: B1 VL with M4L, P12F, H15L, L29I, L30V, S32T, H98Q, I111L

T2 sequence (P02649 other isoform, or with tags, fused parts or gaps limits assumed): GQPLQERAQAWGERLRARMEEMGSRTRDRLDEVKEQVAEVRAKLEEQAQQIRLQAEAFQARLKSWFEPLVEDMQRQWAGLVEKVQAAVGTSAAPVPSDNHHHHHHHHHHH

For the first test, the target named is T1, G200 N-terminal neo-epitope peptide …. Kind of test: second direct ELISA, G200-BSA peptide coated at 1 µg/ml. As for the experimental part: The screening was performed according to standard ELISA protocols. Briefly, 1 μg/ml solutions of BSA-conjugated neo-epitope peptides, recombinant C-terminal ApoE fragment, negative control peptide and full-length ApoE were prepared by dilution in PBS. 50 μl/well were added to an ELISA half-area 96 well microtiter plate, the plate was sealed with adhesive sealer and incubated over night at 4° C. After discarding the solution, the plates were blocked with 150 μl/well of protein-free blocking solution (Pierce) for 1 h at room temperature with shake (900 rpm). The plates were washed four times with washing buffer containing 0.28 mM NaH₂PO₄, 2.5 mM Na₂HPO₄, 150 mM NaCl, 0.1% TWEEN®-20 and 0.0075% Kathon CG. Generated recombinant antibodies of interest were serially diluted 3-fold with a starting dilution at 0.5 μg/ml (mixed 1:1 with dilution buffer: PBS with 0.1% BSA and 0.05% TWEEN®-20). An anti-ApoE C-terminal antibody was used as a reference antibody (ApoE E-8 mouse monoclonal, cat. no. sc-393302; Santa Cruz Biotechnology). 50 μl/well were added into the ELISA plates and incubated for 2 h at room temperature with shake (900 rpm). The plates were washed four times as described previously. […] After another wash (as described previously), 50 μl/well of K-Blue® aqueous substrate (Neogen) were added, and the reaction was stopped after 5-15 min with 50 μl/well of 0.5 M […]. The optical density at 450 nm was read using an ELISA reader (Tecan). The optical density was plotted against the antibody concentration to generate concentration-response curves (FIG. 16).
These were added in the same molarity (0.1 μM) to provide an equal number of molecules available for binding by the antibodies (BSA-coupled peptides were coated at 1 μg/ml as before).
A general note: An ELISA detects its analyte on a solid surface through an enzyme-linked reagent.
Usually EC50 stands for the concentration that produces a half-maximal response. A high value points to lower potency in that assay. Turning to B1, the midpoint of the response, the EC50, lay at 11.6 ng/mL.
The same measure, in the same setting: under B2 stands 6.9 ng/mL; under B3, 7.2 ng/mL.
B4 came in with a concentration giving a half-maximal response (EC50) of 5.1 ng/mL.
Same read-out and setting: under B5 stands 7.3 ng/mL; under B6, 13 ng/mL.

A further test addresses T2, recombinant C-terminal ApoE fragment G200-HIS (ApoE-G200-H299-10xHIS) (human, UniProt P02649 218-317).
T2 construct: also called G200-HIS fragment
The experiment in a line: SPR (Biacore 8K), G200-HIS amine-coupled on CM5, antibody as analyte, bivalent analyte fit (ka1).
The kon is the rate constant with which the complex forms. For the molecule B1, the kon was found to be 260000 M⁻¹ s⁻¹.
The same measure, in the same setting: the same measure for B2: 8.15e+07 M⁻¹ s⁻¹; for B3: 4.98e+06 M⁻¹ s⁻¹; for B4: 8.73e+06 M⁻¹ s⁻¹.
Still for that read-out and setting: the same measure for B5: 1.2e+06 M⁻¹ s⁻¹.
Still for that read-out and setting: under B6 stands 2.88e+06 M⁻¹ s⁻¹.

For another test, the target named is T2, recombinant C-terminal ApoE fragment …. Kind of test: SPR (Biacore 8K), G200-HIS amine-coupled on CM5, antibody as analyte, bivalent analyte fit (kd1). A general note: Surface plasmon resonance follows binding to a sensor surface in real time, without labels.
A word on the koff: it is the first-order rate constant of dissociation. For B1, the koff was found to be 0.0105 s⁻¹.
Still for that read-out and setting: the same measure for B2: 0.006 s⁻¹; for B3: 0.0035 s⁻¹; for B4: 0.0024 s⁻¹.
Still for that read-out and setting: under B5 stands 0.0038 s⁻¹; under B6, 0.0029 s⁻¹.

Another test shares this target. Kind of test: BLI (Octet RED384), G200-HIS captured on anti-HIS biosensor, antibody as analyte, 1:2 bivalent analyte fit. The method, then: Selectivity evaluation and KD determination of recombinant antibodies by bio-layer interferometry: Binding interactions between the N-terminal neo-epitope peptide G200 (SEQ ID NO:50) conjugated to BSA (ligand) and the recombinant antibodies produced in Example 11 (analyte) were evaluated using an Octet RED384 instrument (ForteBio). All analyzed proteins were diluted in 1×Kinetics Buffer (ForteBio).
To analyze the antibody-target interaction and to determine the binding affinity of the recombinant antibodies for recombinant C-terminal ApoE fragment G200-HIS (SEQ ID NO:48), anti-HIS capture biosensors (HIS1K) were used. In the first step (loading step), HIS-tagged recombinant C-terminal ApoE fragment was captured onto the surface of the biosensor. Next, a concentration gradient of pure antibodies was prepared ranging from 150 nM to 2.5 nM in 2-fold serial dilutions. Subsequently, the HIS1K biosensors with ligand were dipped in wells containing diluted antibodies, and the association phase was monitored for 600 s. For monitoring the dissociation phase, the HIS1K biosensors with ligand were moved to a well containing 1× Kinetics Buffer and the dissociation was monitored for 1000 s. For evaluation of the kinetic experiments, the Octet Data Analysis software was used. All values collected from interaction analysis were blank subtracted, and a 1:2 binding kinetics global fit model (bivalent analyte) was used for the evaluation.
Selectivity evaluation and KD determination of recombinant antibodies by bio-layer interferometry: Binding interactions between the recombinant G200 C-terminal ApoE fragment (ligand) and recombinant antibodies (analyte) were evaluated by using an Octet RED384 instrument (ForteBio).
On the technique in general: BLI is a label-free optical method that tracks binding on a fibre tip over time.
On to B1, for which the Kd was 5.2 nM.
Same read-out and setting: under B2 stands 0.9 nM.
Still for that read-out and setting: under B3 stands 9.7 nM; under B4, 0.8 nM; under B5, 0.8 nM.
Same read-out and setting: under B6 stands 1.9 nM.

In the next test the target is T3, full-length ApoE in human brain extract from Alzheimer's disease patients (human, UniProt P02649 19-317).
T3 construct: mature; Endogenous protein on Western blot or in solution (IP); also called ApoE full-length protein
T3 sequence (P02649 19-317): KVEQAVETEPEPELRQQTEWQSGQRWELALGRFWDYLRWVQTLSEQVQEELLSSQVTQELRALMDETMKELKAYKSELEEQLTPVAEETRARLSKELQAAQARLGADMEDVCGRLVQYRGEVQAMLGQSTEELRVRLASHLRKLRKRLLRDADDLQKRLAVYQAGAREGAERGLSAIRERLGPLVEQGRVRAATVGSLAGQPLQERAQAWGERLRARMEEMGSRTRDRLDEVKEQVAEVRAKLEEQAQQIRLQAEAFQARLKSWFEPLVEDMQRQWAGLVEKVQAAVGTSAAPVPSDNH
Kind of test: Western blot of AD brain RIPA 2% SDS extract; recombinant antibody at 2 ug/ml as primary antibody.
In the case of B1, the binding result is recorded as “no binding (tested: 2 ug/ml (text))”.
For B2, the binding result is “no binding (tested: 2 ug/ml (text))”.
On the same count and under the same terms, the same measure for B3: “no binding (tested: 2 ug/ml (text))”.
The same measure, in the same setting: the same measure for B4: “no binding (tested: 2 ug/ml (text))”; for B5: “no binding (tested: 2 ug/ml (text))”; for B6: “no binding (tested: 2 ug/ml (text))”.
